Reference: US9034341B2, “Control of RAGE fusion protein glycosylation and RAGE fusion protein compositions” (TransTech Pharma, LLC, priority 2009, dated 2015)

Tests used:
[1] = test system: human Aβ peptides (Aβ1-40, Aβ1-28); test: Aβ peptide binding ELISA; conditions: for Relative binding compared to control: binding to Abeta relative to S1 control
Experimental: (§1) S100b binding ELISA: An ELISA assay plate was coated with 100 μL/well of 20 μg/mL S100b protein (Cat. No. 559290, Calbiochem, Gibbstown, N.J.) in coating buffer (Tris buffered saline [TBS], pH8.0, with 5 mM CaCl2) overnight at 4° C. The plate was then washed three times with blocking buffer (TBS pH8.0, with 5 mM CaCl2, 0.05% Tween20, and 1% bovine serum albumin [BSA]), and blocked with the blocking buffer for 1-1.5 hr. sRAGE-Ig fusion samples were prepared in a separate dilution plate, the highest concentration was 10 μg/mL in blocking buffer, with 1:4 serial dilution in blocking buffer down to 2.4 ng/mL. After blocking, the assay plate was washed with the blocking buffer and 100 μL of the samples were transferred from the dilution plate to the assay plate. The assay plate was incubated at room temperature for 2.5 hr. The assay plate was then washed three times with the blocking buffer, with 1 min soaking time between the washes. The horseradish peroxidase conjugated goat anti-human IgG (Cat. No. A2290, Sigma, St. Louis, Mo.) was added to the plate with 100 μL/well at 1:2500 dilution in the blocking buffer. The plate was incubated for 1 hr at room temperature. The assay plate was then washed three times with the blocking buffer again, and 100 μL 3,3′,5,5′-tetramethylbenzidine (TMB; Cat. No. 34022, Pierce, Rockford, Ill.) was added to each well and the plate was incubated for 8 minutes at room temperature. 100 μL of 1M H2SO4 was then added to each well, the plate was shaken and read at 450 nm on a microplate reader.
Assay for Aβ peptide binding activities: Briefly, two human Aβ peptides were tested: Aβ1-40 (Catalogue# A-1153-2, Rpeptide), and Aβ1-28 (Catalogue#24232, AnaSpec). The plates were coated by 20 μg/mL peptide in 1% NH4OH overnight at 4° C. The plate was then washed with blocking buffer (TBS pH8.0, 0.05% Tween20, and 1% BSA) and blocked for 1 hr at room temperature. All the other steps were performed essentially as described previously herein for S100b binding assay, supra.

S100b = biological target: T1, S100b (Bos taurus, UniProt P02638); test: S100b binding ELISA; conditions: for Relative binding compared to control: binding to S100b relative to S1 control (untreated sRAGE-Ig)
T1 construct: purchased Calbiochem 559290
T1 sequence (P02638 1-92): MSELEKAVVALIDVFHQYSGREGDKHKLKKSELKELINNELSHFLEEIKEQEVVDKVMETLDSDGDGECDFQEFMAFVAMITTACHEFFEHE
Experimental: Peak fraction collection for S100b binding assay: sRAGE-Ig fusion protein samples were concentrated to 4.0 mg/mL using a 10K Amicon Ultra filtration column (Millipore, Bedford, Mass.) and then separated under the reversed-phase conditions for glycan site occupancy as described above. Three fractions representing the site occupancy variants of sRAGE-Ig were collected as triply glycosylated (fraction one, F1), doubly glycosylated (fraction two, F2), and aglycosylated (fraction three, F3). The collected samples were concentrated and exchanged into a stabilizing buffer. Protein concentration of the fraction samples was determined by 280 nm absorbance with a DU 650 spectrophotometer (Beckman Coulter, Fullerton, Calif.) before subjecting the protein to the S100b ELISA binding assay.
as §1

[2] = versus unfractionated untreated S1

Chain of human Aβ peptides (Aβ1-40, Aβ1-28) (P05067 672-699 limits assumed): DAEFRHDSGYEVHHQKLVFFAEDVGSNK

B1: S1F2: sRAGE-Ig fraction from untreated cells, 2-glycan occupancy (protein)
chain: QNITARIGEPLVLKCKGAPKKPPQRLEWKLNTGRTEAWKVLSPQGGGPWDSVARVLPNGSLFLPAVGIQDEGIFRCQAMNRNGKETKSNYRVRVYQIPGKPEIVDSASELTAGVPNKVGTCVSEGSYPAGTLSWHLDGKPLVPNEKGVSVKEQTRRHPETGLFTLQSELMVTPAPGGDPRPTFSCSFSPGLPRHRALRTAPIQPRVWEPVPLEEVQLVVEPEGGAVAPPSVFLFPPKPKDTLMISRTPEVTCVVVDVSHEDPEVKFNWYVDGVEVHNAKTKPREEQYNSTYRVVSVLTVLHQDWLNGKEYKCKVSNKALPAPIEKTISKAKGQPREPQVYTLPPSRDELTKNQVSLTCLVKGFYPSDIAVEWESNGQPENNYKTTPPVLDSDGPFFLYSKLTVDKSRWQQGNVFSCSVMHEALHNHYTQKSLSLSPGK
**Q.** How did the “Relative binding compared to control” value [1] turn out when B1 was run?
**A.** The value was 170%.

**Q.** What about the “Relative binding compared to control” value (S100b) of the same molecule?
**A.** The value was 173%.

B2: S2F2: sRAGE-Ig fraction from TMYCN treated cells, 2-glycan occupancy (protein)
chain: QNITARIGEPLVLKCKGAPKKPPQRLEWKLNTGRTEAWKVLSPQGGGPWDSVARVLPNGSLFLPAVGIQDEGIFRCQAMNRNGKETKSNYRVRVYQIPGKPEIVDSASELTAGVPNKVGTCVSEGSYPAGTLSWHLDGKPLVPNEKGVSVKEQTRRHPETGLFTLQSELMVTPAPGGDPRPTFSCSFSPGLPRHRALRTAPIQPRVWEPVPLEEVQLVVEPEGGAVAPPSVFLFPPKPKDTLMISRTPEVTCVVVDVSHEDPEVKFNWYVDGVEVHNAKTKPREEQYNSTYRVVSVLTVLHQDWLNGKEYKCKVSNKALPAPIEKTISKAKGQPREPQVYTLPPSRDELTKNQVSLTCLVKGFYPSDIAVEWESNGQPENNYKTTPPVLDSDGPFFLYSKLTVDKSRWQQGNVFSCSVMHEALHNHYTQKSLSLSPGK
**Q.** Which results are given for B2?
**A.** Relative binding compared to control [1]: 238%; Relative binding compared to control (S100b): 180%

B3: S2F3: sRAGE-Ig fraction from TMYCN treated cells, 0-glycan occupancy (aglycosylated variant) (protein)
chain: QNITARIGEPLVLKCKGAPKKPPQRLEWKLNTGRTEAWKVLSPQGGGPWDSVARVLPNGSLFLPAVGIQDEGIFRCQAMNRNGKETKSNYRVRVYQIPGKPEIVDSASELTAGVPNKVGTCVSEGSYPAGTLSWHLDGKPLVPNEKGVSVKEQTRRHPETGLFTLQSELMVTPAPGGDPRPTFSCSFSPGLPRHRALRTAPIQPRVWEPVPLEEVQLVVEPEGGAVAPPSVFLFPPKPKDTLMISRTPEVTCVVVDVSHEDPEVKFNWYVDGVEVHNAKTKPREEQYNSTYRVVSVLTVLHQDWLNGKEYKCKVSNKALPAPIEKTISKAKGQPREPQVYTLPPSRDELTKNQVSLTCLVKGFYPSDIAVEWESNGQPENNYKTTPPVLDSDGPFFLYSKLTVDKSRWQQGNVFSCSVMHEALHNHYTQKSLSLSPGK
modifications: non-natural residues
**Q.** How did the “fold increase in binding to Abeta compared to fully occupied 3-glycan version” value ([1]; versus S2F1) turn out when B3 was run?
**A.** Its value is “six-fold”.

**Q.** What about the “fold increase in binding to Abeta compared to S1 control” value [1, 2] of the same molecule?
**A.** The value was “three-fold”.

**Q.** What about the “fold increase in binding to S100b compared to fully occupied 3-glycan version” value (S100b; versus S1F1) of the same molecule?
**A.** The value was “ten-fold”.

**Q.** And the “fold increase in binding to S100b compared to S1 control” value (S100b; [2])?
**A.** The value was “five-fold”.

B4: S2F1: sRAGE-Ig fraction from TMYCN treated cells, 3-glycan occupancy (protein)
chain: QNITARIGEPLVLKCKGAPKKPPQRLEWKLNTGRTEAWKVLSPQGGGPWDSVARVLPNGSLFLPAVGIQDEGIFRCQAMNRNGKETKSNYRVRVYQIPGKPEIVDSASELTAGVPNKVGTCVSEGSYPAGTLSWHLDGKPLVPNEKGVSVKEQTRRHPETGLFTLQSELMVTPAPGGDPRPTFSCSFSPGLPRHRALRTAPIQPRVWEPVPLEEVQLVVEPEGGAVAPPSVFLFPPKPKDTLMISRTPEVTCVVVDVSHEDPEVKFNWYVDGVEVHNAKTKPREEQYNSTYRVVSVLTVLHQDWLNGKEYKCKVSNKALPAPIEKTISKAKGQPREPQVYTLPPSRDELTKNQVSLTCLVKGFYPSDIAVEWESNGQPENNYKTTPPVLDSDGPFFLYSKLTVDKSRWQQGNVFSCSVMHEALHNHYTQKSLSLSPGK
**Q.** For B4, which “Relative binding compared to control” value [1] is on record?
**A.** The value was 49%.

**Q.** What about the “Relative binding compared to control” value (S100b) of the same molecule?
**A.** The value was 20%.

B5: S1F1: sRAGE-Ig fraction from untreated cells, 3-glycan occupancy (protein)
chain: QNITARIGEPLVLKCKGAPKKPPQRLEWKLNTGRTEAWKVLSPQGGGPWDSVARVLPNGSLFLPAVGIQDEGIFRCQAMNRNGKETKSNYRVRVYQIPGKPEIVDSASELTAGVPNKVGTCVSEGSYPAGTLSWHLDGKPLVPNEKGVSVKEQTRRHPETGLFTLQSELMVTPAPGGDPRPTFSCSFSPGLPRHRALRTAPIQPRVWEPVPLEEVQLVVEPEGGAVAPPSVFLFPPKPKDTLMISRTPEVTCVVVDVSHEDPEVKFNWYVDGVEVHNAKTKPREEQYNSTYRVVSVLTVLHQDWLNGKEYKCKVSNKALPAPIEKTISKAKGQPREPQVYTLPPSRDELTKNQVSLTCLVKGFYPSDIAVEWESNGQPENNYKTTPPVLDSDGPFFLYSKLTVDKSRWQQGNVFSCSVMHEALHNHYTQKSLSLSPGK
**Q.** Which results are given for B5?
**A.** Relative binding compared to control [1]: 102%; Relative binding compared to control (S100b): 46%
